From the nanobody polyreactivity screen of Harvey et al. (2022)

Assay: yeast display, Sf9 membrane polyspecificity reagent, FACS + sequencing; frameworks hold sequencing errors
Summary of the method: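 After 36–48 hours of galactose induction, yeast (Saccharomyces cerevisiae BJ5465) displaying a synthetic nanobody library were stained at 4 °C for 1 hour with 10% biotinylated, detergent-solubilized Sf9 membrane reagent. Streptavidin microbeads enriched the stained cells before FACS sorting into low and high (top ~1%) gates on anti-HA and streptavidin fluorescence. Each clone's polyreactivity label reflects its gate of origin.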

## QLQLVESGGGLVQAGGSLRLSCAASVRTFNSYAMGRYRQAPGKERELVAGISTSGDNTYYADSVKGRFTISRDNAKNTVFLQMNSLKPEDSAVYYCATQFPPSTIYDYWGQGTQVTVSS
  polyreactivity (PSR sort gate): low polyreactivity

## QVQLQESGGGLVQAGGSLRLSCAVSGTIFFPLDMGWYRQAPGREREYVAAIAEGTSTYYADSVKGRFTISRDNAKNTVYPQMYSLKPEDTAVYYCAAYRSTPQQFHYWGQGTQVTVSS
  polyreactivity (PSR sort gate): high polyreactivity

## QVQLVESGGGLVQAGGSLRLSCAASGSTFYYNAMGWYRQAPGKERELVAAITFTGGSTYADSVKGRFSISRDNAKNTVYLQMNSLKPEDTAVYYCAATIQGHDYLGTGYDYWGQGTQVTVSS
  polyreactivity (PSR sort gate): low polyreactivity

## QVQLVESGGGLVQAGGSLRLSCAASGFISAYYAMGWYRQAPGKEMELVAAISWNGGRTFYADSVKGRFTISRDNAKNTVYLQMNSLKPEDTAVYYCAADGRLRGYGYWGQGTQVTVSS
  polyreactivity (PSR sort gate): high polyreactivity

## QVQLVESVGGLVQAGGSLRLICAASGRTFRGYAMGWYRQAPGKERELVAAISSSGGRTYYADSVKGRFTISRDNAKNTVYLQMNSLKPEDTAVYYCAAAVTLSPAQYGYWGQGTQVTVSS
  polyreactivity (PSR sort gate): high polyreactivity

## QVQLVESGGGLVEAGGSLRLSCADSGRTFGSYTMGWYRQAPGKEREWVAAITSGGRTNYADSVKGRFTISRDNAKNTVYLQMNSLKPEDTAVYYCAPGWRGGRYRYFAYDYWGQGTQVTVSS
  polyreactivity (PSR sort gate): high polyreactivity

## QVQLVESGGGLVQAGGSLRLSCAASGSIFSTYVMGWYRQAPGKERELVAAISRRGGSTYYADSVKGRFTISRDNAKNTVYLQMNSLKPEDTAVYYCAARGQFRYSFGDYSWGQGTQVTVSS
  polyreactivity (PSR sort gate): high polyreactivity

## QVQLVESGGGLVQAGCSLRCSCPDSGGIFTRYVMGWYRPAPGKEREMVAAISSRGGSTYYADSVKGRFTISRDNAKNTVYLQMNSLKPEDTAVYYSAAEQGRTSYRYYYWGQGTQVTVSS
  polyreactivity (PSR sort gate): high polyreactivity

## QVQLVESVGGLVQAGGSLRLSCAASGFTFWIYAMGWYRQAPGKERELVAVISRGGSTYYADSVKGRFTISRDNAKNTVYLQMNSLKPEDTAVYYCAAYWRSRNRFYWGQGTQVTVSS
  polyreactivity (PSR sort gate): high polyreactivity

## QVQLVESGGGLVQAGGSLRLSCAASGFTFRRYVMGWYRQAPGKERELVAAISSGGRTNYADSVKGRFTISRYNAKNTVYLQMNSLKPEDTAVYYCNKASTSYYRFNYWGQGTQVTVSS
  polyreactivity (PSR sort gate): high polyreactivity

## QVQLVESGGGLFQAGGSLRLSCAASGTTFAYYTMGWYIQAPGTERELVAAITSGGRTSYADSVKGRFTISRDNAKNTVYLLMNSLKPEDTAFFSCAKCRKPGYYYWGQGNQVTVSS
  polyreactivity (PSR sort gate): high polyreactivity

## QVQLVESGGGLVQAGGSLRLSCAASGSIFYSNAMGWYRQAPGKERELVAAITWSGGSTYYADSVKGRFTFSRDNAKNTVYLQKNSLKPEDTSVYYCNARRNVRQTFGYEDWGQGTQVTVSS
  polyreactivity (PSR sort gate): high polyreactivity

## QVQLVESGGGLVQAGGSLRLSCAASGIIFRIYAMGWYRQAPGKERELVAAITYIGTSTYYADSVKGRFTISRDNAKNTVYLQMNSLKPEDTAVYFCYFYYVFRSDYWGQGTQVTVSS
  polyreactivity (PSR sort gate): low polyreactivity

## QVQLVESGGGLVQAGGSLRLSCAASGRTFGYYAMGWYRQAPGKERELVAAISSSGGSTYYADSVKGRFTISRDNAKNTVYLQMNSLKPEDTAVYYCAARFANGGGYWGQGTQVTVSS
  polyreactivity (PSR sort gate): high polyreactivity

## QVQLVESGGGLVQAGGSLRLSCAASGGIFYLNAMGWYRQAPGKERELVAAISSGVSTYYADSVKGSFTISRDNAKNTVYLKMNSLKPEDTAVYYCNADYNYPAWVGSWWDYDYWGQGTQVTVTS
  polyreactivity (PSR sort gate): low polyreactivity

## QVHIVESGGGLVQAGGSLRLICAASGRTFNGYVMGWYRQAPGKEREFVAVINWSGGNTYYADSVKGRFTISRDNAKNTVYLQMNSLKPEDTAVYYCAARRVRSYAYDYWGQGTQVTVSS
  polyreactivity (PSR sort gate): high polyreactivity

## QVQLVESGGGLVQAGGSLRLSCAASGLIFRFYAMGWYRQAPGKERELVAAISSRGGSTYYADSVKGRFTISRDNAKNTVYLQMNSLKPEDTAVYYCAAVFSLIASSYDYWGQGTQVTVSS
  polyreactivity (PSR sort gate): high polyreactivity

## QVQLVESGGGLVQAGGSLRLSCAASGSIFKYNTMGWYRQAPGKERELVAAIRYSGGRTYYADSVKGRFTISRDYAKNTVYLQMNSLKPEDTAVYYCAAGSIQYRPTYTGDYWGQGTQVTVSS
  polyreactivity (PSR sort gate): high polyreactivity

## QVQLVESGGGLVQAGGSLRLSCAASGSTSRYNVMGWSRQPPGKERELVAAISSRGVSTYYADSVKGRFTISRDNAKNTVYLQMNSLKPEDTAVYYCAALYGGPSHYGYWGQGTQVTVSS
  polyreactivity (PSR sort gate): high polyreactivity

## QVQLVESGGGLVQAGGSLRLSCAASGFTFTYYTMGWYRQATGKERELVAGISRSGGSTYYADSVKGRFTISRDYAKNTVYLQMNSLKPVDTAVYYCAAGSIQYRPTYTGDYWGQGTQVTVSS
  polyreactivity (PSR sort gate): high polyreactivity

## QVQLVESGGGLVQAGGSLRLSCAASGSIFAQYAMGWYRQAPGKERELVAAITRGGGNTYYADTVKGRFTISRDNAKNTVYLQMNSLKPEDTAVYYCAANRRDGYVYWGQGTQVTVSS
  polyreactivity (PSR sort gate): low polyreactivity

## QVQLVESGGCLVQAGGSLRLSCAASGSTFSPYAMGWYRQAPGKERELVAGITGRGGRTYYADSVKGRFTISRDNAKNTVYLQMNSLKPEDTAVYYCAAKYYGNKRDLYYWGQGTQVTVSS
  polyreactivity (PSR sort gate): low polyreactivity

## HVQLVESGGGLVQAGGSLRLSCAASGFISVRNGMGWYRQAPGKERELVAAITGSGGSTYYADSVKGRFTISRDNAKNTVYLQMNSLKPEDTAVYYCARTYTVSRKRMGYWGQGTQVTVSS
  polyreactivity (PSR sort gate): high polyreactivity

## QVQLVESGGVLVQAGGSLRLSCAASGRIFDYYAMGWYRKAPGKERELVAAITSGGTTTYYADSVKGRFTISRDNAKNTVYLQMKSLKPEDTAVYYCAKYPYHIYHTEGDYWGQATQVTVSS
  polyreactivity (PSR sort gate): low polyreactivity

## QVQLVESGGGLVQAGGSLRLSCAASGSIFAPYAMGWYRQAPGKEREFVATITWGGGRTYYADSVKGRFTISRDNAKNTVYLQMNSLKPEDTAVYYCAAAIYYGSLGLFDYWGQGTQVTVSS
  polyreactivity (PSR sort gate): high polyreactivity

## QGQLVESGGGLVQAGGSLRLSCAASGSTFNSYAMGWYRQAPGKERELVAAISRGGASTYYADSVKGSFTISRDNAKNTVYLQMNSLKPEDTAVYYCATVYYHRFDYWGQGTQVTVSS
  polyreactivity (PSR sort gate): high polyreactivity

## QVQLVESGGGLVQAGGSLRLSCAASGIIFFSNAMGWYRQAPGKERELVAAIDDSDGVTYYADSVKGRFTISRDNAKNTVYLQMNSLKPEDTAVYYCAAVDGWTYTGSDYWGDGTQVTVSS
  polyreactivity (PSR sort gate): low polyreactivity

## QVQLVESGGGLVQAGGSLRLSCAASGSTFTLYAMGWYRQAPGKERELVATITGSGGSTNYADSVKGRFTISRDNAKNTVYLQMNSLKPEDTAVYYCAADYAVYSFTDFNYWGQGTQVTVSS
  polyreactivity (PSR sort gate): high polyreactivity

## QVQLVESGGGLVQAGGSLRLSCAASGFTFWRYAMGWYRQAPGKERELVAAISRTGGRTYYADSVKGRFTISRDNAKNTVYLQMNSLKPEDTAVYYCAAVKYETYRYNYDYWGQGTQVTVSS
  polyreactivity (PSR sort gate): high polyreactivity

## QVQLVESGGGLVQAGGSLRLSCAASGSTSDPYGMGWYRQAPGKERELVAAISSNGDSTYYADSVKGRFTLSRDNAKNTVYLQMNSLKPEDTAVYYCAARILYSYHLYDYWGQGTQVTVSS
  polyreactivity (PSR sort gate): high polyreactivity

## QVQLVESGGGLVQAGGSLRLSCAASGSIFSSYAMGWYRQAPGKERELVAAISGGGNTYYADSVKGRFTISRDNAKNTVYLQMNSLKPEDTAVYYCATDTYDPFHIEDDYWGQGTQVTVSS
  polyreactivity (PSR sort gate): low polyreactivity

## QVQLVESGGGLVQAGGSLRLSCSASGSTFTYYAIGWYRTAPGEERELGAAISWRGTSTYYADSVKGRFTISRDNAKNSVYLQMNSLKTEETAVYSCAGRGLWPYDYWGQGTQVTVSS
  polyreactivity (PSR sort gate): low polyreactivity
